B1: 992-DM1 (antibody, V domains shown)
VH: EVQLQQPGSELVRPGASVKLSCKASGYTFTSYWMHWVKQRPGQGLEWIGNIYPGSRSTNYDEKFKSKATLTVDTSSSTAYMQLSSLTSEDSAVYYCTRNGDYYVSSGDAMDYWGQGTSVTVS
VL: DIQMTQTTSSLSASLGDRVTISCRTSQDIGNYLNWYQQKPDGTVKLLIYYTSRLHSGVPSRFSGSGSGTDFSLTINNVEQEDVATYFCQHYNTVPPTFGGGTKLEIKR
modifications: DM1 conjugated through SMCC linker; conjugated residues and chain not stated
B2: 1024-DM1 (antibody, V domains shown)
VH: QVQLQQPGAELVEPGGSVKLSCKASGYTFTSHWMHWVKQRPGQGLEWIGEINPSSGRNNYNEKFKSKATLTVDKSSSTAYMQFSSLTSEDSAVYYCVRYYGYDEAMDYWGQGTSVTVS
VL: DIVMTQAAFSNPVTLGTSASISCRSSKSLLHSNGITYLYWYLQKPGQSPQLLIYQMSNLASGVPDRFSSSGSGTDFTLRISRVEAEDVGVYYCAQNLELPYTFGGGTKLEIKR
modifications: DM1 conjugated through SMCC linker; conjugated residues and chain not stated

Biological target: human epidermal growth factor receptor (hEGFR) (human, UniProt P00533 25-1210)
Experiment: cell-based or functional assay

Row | Binder | IC50 (nM), cell growth/survival (sulforhodamine B), A549 | IC50 (nM), cell growth/survival (sulforhodamine B), NCI-H226 | IC50 (nM), cell growth/survival (sulforhodamine B), NCI-H292
1 | B1 | 2.2 nM | 1.07 nM | 0.22 nM
2 | B2 | 24.7 nM | 1.89 nM | 0.09 nM

From patent US20170333570A1 (FORMATION BIOLOGICS, published 2017)
